We go through 32 variants from the RNAGym collection of RNA variant scans (doi:10.7554/elife.80360).

The labels stand for the following.
B1: HDV Ribozyme (parent)
chain: GGCCGGCAUGGUCCCAGCCUCCUCGCUGGCGCCGGCUGGGCAACAUUCCGAGGGGACCGUCCCCUCGGUAAUGGCGAAUGGGACCCA

The variants in the data set derive from B1. The data set can be described thus: self-cleavage, relative activity (ratio to wild type); higher = more cleavage; co-transcriptional.
As to GGCCGGCAUGGUCCCAGCCUCCUCGCUGGGGCCGGCUGGGCUACAUUCCGAGGGGACCGUCCCCUCGGUAAUGGCGAAUGGGACCCA [C30G A42U], the self-cleavage worked out at 0.

As to GGCCGGCAUGGUCCCAGCCUCCUCGCUGGGGCCGGCUGGGCAACAUUCCGAGGGGACCGUCCCCUCGGUACUGGCGAAUGGGACCCA [C30G A71C], the self-cleavage was found to be 0.0554. With GGCCGGCAUGGUCCCAGCCUCCUCGCUGGGGCCGGCUGGGCAACAUUCCGAGGGGACCGUCCCCUCGGUAUUGGCGAAUGGGACCCA [C30G A71U] the figure was 0.0875. On to GGCCGGCAUGGUCCCAGCCUCCUCGCUGGGGCCGGCUGGGCAACAUUCCGAGGGGACGGUCCCCUCGGUAAUGGCGAAUGGGACCCA [C30G C58G], for which the self-cleavage was 0.0804. Consider GGCCGGCAUGGUCCCAGCCUCCUCGCUGGGGCCGGCUGGGCAACAUUCCGAGGGGACAGUCCCCUCGGUAAUGGCGAAUGGGACCCA [C30G C58A], for which the self-cleavage is 0.0386. Turning to GGCCGGCAUGGUCCCAGCCUCCUCGCUGGGGCCGGCUGGGCAACAUUCCGAGGGGACUGUCCCCUCGGUAAUGGCGAAUGGGACCCA [C30G C58U], the self-cleavage was found to be 0.0906. To GGCCGGCAUGGUCCCAGCCUCCUCGCUGGAGCCGGCUGGGCAACAUUCCGAGGGCACCGUCCCCUCGGUAAUGGCGAAUGGGACCCA [C30A G55C] belongs 0.653; to GGCCGGCAUGGUCCCAGCCUCCUCGCUGGGGCCGGCUGGGCAAGAUUCCGAGGGGACCGUCCCCUCGGUAAUGGCGAAUGGGACCCA [C30G C44G], 0; to GGCCGGCAUGGUCCCAGCCUCCUCGCUGGGGCCGGCUGGGCAAUAUUCCGAGGGGACCGUCCCCUCGGUAAUGGCGAAUGGGACCCA [C30G C44U], 0.0213.

With GGCCGGCAUGGUCCCAGCCUCCUCGCUGGGGCCGGCUGGGCAACAUUCCGAGGGGACCGUCCCCUCGGUAAUGGCGAAUGGGAACCA [C30G C84A], the self-cleavage amounted to 0. With GGCCGGCAUGGUCCCAGCCUCCUCGCUGGAGCCGGCUGGGCAACAUUCCGAGGGGACCGUCCCCUCGGAAAUGGCGAAUGGGACCCA [C30A U69A] the figure was 0.353. With GGCCGGCAUGGUCCCAGCCUCCUCGCUGGAGCCGGCUGGGCAACAUUCCGAGGGGACCGUCCCCUCGGGAAUGGCGAAUGGGACCCA [C30A U69G] the figure was 0.469.

In the case of GGCCGGCAUGGUCCCAGCCUCCUCGCUGGGGCCGGCUGGGCAACAUUCCGAGGGGACCGUCCCCUCGGUAAUGGCGAAUGGGACCCG [C30G A87G], the self-cleavage was 0.0702. Regarding GGCCGGCAUGGUCCCAGCCUCCUCGCUGGGGCCGGCUGGGCAACAUUCCGAGGGGACCGUCCCCUCGGUAAUGGCGAAUGGGACCCU [C30G A87U], the self-cleavage was determined as 0.14. Regarding GGCCGGCAUGGUCCCAGCCUCCUCGCUGGGGCCGGCUGGGCAACAUUCCGAGGGGACCGUCUCCUCGGUAAUGGCGAAUGGGACCCA [C30G C62U], the self-cleavage turned out to be 0.185. Take GGCCGGCAUGGUCCCAGCCUCCUCGCUGGGGCCGGCUGGGCAACAUUCCGAGGGGACCGUCACCUCGGUAAUGGCGAAUGGGACCCA [C30G C62A]: the self-cleavage came out at 0.122. For GGCCGGCAUGGUCCCAGCCUCCUCGCUGGGGCCGGCUGGGCAACAUUUCGAGGGGACCGUCCCCUCGGUAAUGGCGAAUGGGACCCA [C30G C48U], the self-cleavage is 0.241.

Take GGCCGGCAUGGUCCCAGCCUCCUCGCUGGAGCCGGCUGGGCAACAUUCCGAGGGGACCGUCCCCUCGGUAAUGGCGAAUGGUACCCA [C30A G82U]: the self-cleavage worked out at 0.166. As to GGCCGGCAUGGUCCCAGCCUCCUCGCUGGAGCCGGCUGGGCAACAUUCCGAGGGGACCGUCCCCUCGGUAAUGGCGAAUGGAACCCA [C30A G82A], the self-cleavage is 0.0898. With GGCCGGCAUGGUCCCAGCCUCCUCGCUGGAGCCGGCUGGGCAACAUUCCGAGGGGACCGUCCCCUCGAUAAUGGCGAAUGGGACCCA [C30A G68A] the figure was 0.411; with GGCCGGCAUGGUCCCAGCCUCCUCGCUGGAGCCGGCUGGGCAACAUUCCGAGGGGACCGUCCCCUCGUUAAUGGCGAAUGGGACCCA [C30A G68U], 0.569; with GGCCGGCAUGGUCCCAGCCUCCUCGCUGGAGCCGGCUGGGCAACAUUCCGAGGGGACCGUCCCCUCGGUAAUCGCGAAUGGGACCCA [C30A G73C], 0.119. To GGCCGGCAUGGUCCCAGCCUCCUCGCUGGAGCCGGCUGGGCAACAUUCCGAGGGGACCGUCCCCUCGGUAAUAGCGAAUGGGACCCA [C30A G73A] belongs 0.237; to GGCCGGCAUGGUCCCAGCCUCCUCGCUGGGGCCGGCUGGGCAACAUUCCGAGGGGACCGUCCCCUCGGUAAUGGCGAUUGGGACCCA [C30G A78U], 0.0678. GGCCGGCAUGGUCCCAGCCUCCUCGCUGGGGCCGGCUGGGCAACAUUCCGAGGGGACCGUCCCCUCGGUAAUGGCGAGUGGGACCCA [C30G A78G]: the self-cleavage was 0.0923. With GGCCGGCAUGGUCCCAGCCUCCUCGCUGGGGCCGGCUGGGCAACAUUCCGAGGGGACCGUCCCCUCGGUAAUGGCGACUGGGACCCA [C30G A78C], the self-cleavage was 0.0744. On to GGCCGGCAUGGUCCCAGCCUCCUCGCUGGAGCCGGCUGGGCAACAUUCCGAGGGGACCGUCCCCUCGGUAAUGGCCAAUGGGACCCA [C30A G76C], for which the self-cleavage amounted to 0.464.

For GGCCGGCAUGGUCCCAGCCUCCUCGCUGGAGCCGGCUGGGCAACAUUCCGAGGGGACCGUCCCCUCGGUAAUGGCAAAUGGGACCCA [C30A G76A], the self-cleavage was found to be 0.585. As to GGCCGGCAUGGUCCCAGCCUCCUCGCUGGAGCCGGCUGGGCAACAUUCCGAGGGGACCGUCCCCUCGGUAAUGGCUAAUGGGACCCA [C30A G76U], the self-cleavage was found to be 0.554. For the variant GGCCGGCAUGGUCCCAGCCUCCUCGCUGGGGCCGGCUGGGCAACAUUCCGAGGGGACCGUCCCUUCGGUAAUGGCGAAUGGGACCCA [C30G C64U], the self-cleavage was determined as 0.126. For the variant GGCCGGCAUGGUCCCAGCCUCCUCGCUGGGGCCGGCUGGGCAACAUUCCGAGGGGACCGUCCCGUCGGUAAUGGCGAAUGGGACCCA [C30G C64G], the self-cleavage was 0.0396. With GGCCGGCAUGGUCCCAGCCUCCUCGCUGGGGCCGGCUGGGCAACAUUCCGAGGGGACCGUCCCAUCGGUAAUGGCGAAUGGGACCCA [C30G C64A] the figure was 0.0361.
